Source: the supplement of paper PMC10567573

B1: CFHR2 (parent)
chain: FVENGHSESSGQTHLEGDTVQIIC
B2: PTPN9 (parent)
chain: TQHLPRECLPENLGGYVKIDLATW

Variants of: B1
Test: protein stability index of a GFP-peptide fusion (GPS, HEK-293T) (PSI 1-6); higher = more stable
Settings: c terminus: a fixed tail appended
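Also: lentivirally expressed fusions sorted by FACS into six bins by GFP to DsRed ratio, PSI derived from sequencing read proportions per bin multiplied by bin number.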

Protein stability index: each site, then its substitutions
D18: C 1.65; T 2.31; L 2.62; P 2.23; H 2.28; R 2.07; V 2.34; M 1.83; K 2.52; E 2.76; F 2.33; Q 2.47; Y 2.36; N 2.25; I 2.02; G 2.3; S 2.58; A 2.13; W 1.62
S9: P 2.75; Y 1.66; A 2.5; G 2.7; M 2.32; Q 3.14; T 2.78; I 2.2; D 3.23; R 2.14; F 2.19; C 2.02; K 2.76; N 2.76; V 2.15; L 1.99; E 3.22; H 2.77
I23: A 3.95; K 3.35; D 4.42; F 2.1; N 3.77; W 2.35; L 3.71; T 3.88; E 4.13; S 3.21; G 3.52; H 3.47; C 2.73; V 3.22; M 2.83; P 3.24; Y 2.11; Q 3.35; R 2.9
Q12: P 3.19; W 2.35; T 2.62; D 3.46; I 2.06; M 1.76; C 1.86; G 3.2; A 2.43; S 2.49; F 2.23; K 2.05; R 1.92; Y 1.62; H 2.4; L 1.69; E 3.67; V 2.08; N 3.39
E8: H 2.08; Y 2.29; A 2.15; V 2.45; N 2.18; G 2.22; C 1.82; Q 2.15; W 3.2; F 1.64; D 2.75; M 1.57; K 1.97; I 1.57; S 2.32; L 1.81; R 2.28; T 2.16; P 2.51
G11: W 2.33; R 2.86; M 2.03; T 2.86; P 3.22; D 3.4; H 2.67; K 2.39; Y 2.04; L 2.5; N 3.09; Q 2.96; F 1.98; A 2.56; S 2.48; I 1.81; E 3.32; V 2.67; C 2.19
G17: R 2.52; W 1.79; K 2.54; M 2.29; N 2.9; F 1.8; H 2.99; Q 2.97; I 2.05; L 2.08; D 3.46; E 4.47; Y 1.73; P 2.81; A 2.3; T 2.91; V 2.11; C 2.28; S 2.77
I22: L 2.34; E 4.08; D 4.25; W 1.67; G 3.85; H 3.58; T 3.87; M 2.63; Y 3.1; Q 3.74; C 3.17; V 3.02; A 3.56; P 3.99; N 3.49; S 4.26; R 3.53; K 3.74; F 3.03
L15: I 2.69; R 2.87; P 3.2; E 3.15; M 3.13; Y 2.76; V 2.99; F 2.2; W 1.53; A 3.22; C 2.78; H 3; D 3.4; S 3.22; T 3.12; G 2.9; Q 3.65; N 3.49; K 3.25
C24: A 3.96; W 3.05; R 3.57; G 3.8; T 3.61; E 3.88; Y 2.08; I 2.49; P 3.87; S 3.91; L 2.38; D 4.46; H 3.23; M 2.28; K 3.29; N 3.42; Q 4.31; F 1.88; V 1.95
H14: F 1.89; A 3.11; M 2.35; L 2.37; D 3.29; C 1.96; G 2.47; W 1.75; I 3.28; Y 2.52; R 2.89; K 2.35; Q 3.46; N 3.43; P 2.83; V 2.95; S 3.02; T 3.08; E 4.18
E16: T 2.62; P 2.42; G 2.01; N 2.15; C 1.82; L 2.59; K 2.19; H 1.86; S 2.71; M 2.14; A 2.13; Q 2.33; V 1.76; D 3.12; R 2.63; I 2.25
S10: G 2.87; Y 1.94; R 2.59; V 1.75; L 2.31; I 1.56; A 2.65; P 3.49; T 2.73; H 2.34; K 2.65; F 1.97; C 2; E 3.33; Q 2.77; D 3.51; N 2.99; M 2.08
T19: V 3.3; M 2.33; G 3.25; I 2.62; N 3.71; R 2.37; H 3.1; D 3.68; K 2.82; W 1.53; E 3.09; P 3.13; F 2.66; L 2.14; S 3.21; Q 3.19; Y 2.24; C 2.84
V20: K 3.06; P 3.26; T 3.74; Q 4.09; E 4.03; F 2.02; C 2.69; H 3.41; Y 2.71; S 2.74; N 3.66; G 4; M 2.59; A 3.64; I 2.19; D 3.81; R 3.3; W 1.57; L 2.45
T13: W 1.85; Q 3.18; G 3.03; D 3.43; I 2.06; E 3.3; L 2.29; A 2.54; S 2.95; M 2.19; K 2.48; R 2.47; H 2.34; P 2.87; F 1.88; Y 2.19; N 3.35; V 2.24; C 2.55
S7: Y 1.64; H 2.75; Q 3.04; D 3.09; M 2.19; F 1.43; T 3.24; I 2.42; K 2.84; W 4.33; V 2.39; P 3.12; N 3.14; E 3.87; L 3.1; G 2.63; R 2.29
Q21: T 2.79; F 1.91; K 2.83; R 2.9; I 1.82; Y 2.58; M 1.92; D 3.69; C 2.18; H 2.24; L 1.17; P 3.04; S 2.91; A 3.11; V 1.85; G 3.01; E 3.15; N 3.29

Variants of: B2
Test: as above
Settings: c terminus: a fixed tail appended

Protein stability index, by site and new letter:
T1: A 2.06
